According to the supplement of paper PMC7125110:
± gives the standard error. This sample holds only a part of the variants without activity.

B1: glmS ribozyme (parent)
chain: AUAAAAGCGCCAGAACUACAGAAAUGUAGUUGACGAGGAGGAGGUUUAUCGAAUUUUCGGCGGAUGCCUCCAAA

Key:
Conditions in all cases: with glucosamine-6-phosphate
glucosamine-6-phosphate [1] = variants of: B1; experiment: self-cleavage kobs at 40 uM GlcN6P; higher = faster cleavage; RNA array
In short: (§1)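 Using a hybridised Cy3 probe at 37 °C, barcoded ribozyme variants transcribed in situ by E. coli RNA polymerase on sequenced MiSeq chips were monitored across tiles imaged over ~14 h. The flow contained glucosamine-6-phosphate from 40 μM to 10 mM in HEPES/KCl/Mg(OAc)2 buffer. Signals were normalised to baseline and to non-cleaving reference variants before per-tile medians were fit to one- or two-exponential decays to yield kobs. Weighted Michaelis–Menten fits across concentrations gave kcat and KM.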

glucosamine-6-phosphate [2] = variants of: B1; experiment: self-cleavage kobs at 160 uM GlcN6P; higher = faster cleavage; RNA array
In short: as §1

glucosamine-6-phosphate [3] = variants of: B1; experiment: self-cleavage kobs at 640 uM GlcN6P; higher = faster cleavage; RNA array
In short: as §1

glucosamine-6-phosphate [4] = variants of: B1; experiment: self-cleavage kobs at 2500 uM GlcN6P; higher = faster cleavage; RNA array
In short: as §1

glucosamine-6-phosphate [5] = variants of: B1; experiment: self-cleavage kobs at 10000 uM GlcN6P; higher = faster cleavage; RNA array
In short: as §1

Variant	self-cleavage kobs at 40 uM GlcN6P (glucosamine-6-phosphate [1])	self-cleavage kobs at 160 uM GlcN6P (glucosamine-6-phosphate [2])	self-cleavage kobs at 640 uM GlcN6P (glucosamine-6-phosphate [3])	self-cleavage kobs at 2500 uM GlcN6P (glucosamine-6-phosphate [4])	self-cleavage kobs at 10000 uM GlcN6P (glucosamine-6-phosphate [5])
A14U G37U G59U C61A	< 1e-05 s⁻¹	–	–	–	–
A15C G35A	< 1e-05 s⁻¹	< 1e-05 s⁻¹	< 1e-05 s⁻¹	< 1e-05 s⁻¹	< 1e-05 s⁻¹
C11A A14U A15G G29A G44U C61A	< 1e-05 s⁻¹	–	< 1e-05 s⁻¹	< 1e-05 s⁻¹	< 1e-05 s⁻¹
A12G C50U G59U G60A	< 1e-05 s⁻¹	–	–	–	< 1e-05 s⁻¹
C11G C58U G59U	< 1e-05 s⁻¹	–	–	–	< 1e-05 s⁻¹
A12U G62C	< 1e-05 s⁻¹	< 1e-05 s⁻¹	< 1e-05 s⁻¹	< 1e-05 s⁻¹	< 1e-05 s⁻¹
A14G C34U C50G C68G	7.72e-05 ± 1.6e-05 s⁻¹	–	–	–	–
C10U U57A	< 1e-05 s⁻¹	–	–	–	< 1e-05 s⁻¹
C10U U57G	< 1e-05 s⁻¹	–	–	–	–
A15G U31G U69C	4.45e-05 ± 1.7e-05 s⁻¹	–	–	–	–
C11U U30A A48G G59C A64G	< 1e-05 s⁻¹	–	–	< 1e-05 s⁻¹	< 1e-05 s⁻¹
A14G G35U G37U G44U C71U	< 1e-05 s⁻¹	–	–	< 1e-05 s⁻¹	–
C11U G40C U46G	< 1e-05 s⁻¹	–	–	–	–
A14G G32C U49A	< 1e-05 s⁻¹	–	–	–	< 1e-05 s⁻¹
A14U G62C	< 1e-05 s⁻¹	–	–	< 1e-05 s⁻¹	–
A12U U47G	0.000706 ± 0.0001 s⁻¹	–	–	0.0123 ± 0.0039 s⁻¹	0.0118 ± 0.002 s⁻¹
A12C C50G	5.75e-05 ± 1.5e-05 s⁻¹	0.000244 ± 8.9e-05 s⁻¹	5.32e-05 ± 1.5e-05 s⁻¹	8.38e-05 ± 1.9e-05 s⁻¹	–
G13C U49G G60U C70G	< 1e-05 s⁻¹	–	–	–	–
G13C G51A	< 1e-05 s⁻¹	–	–	< 1e-05 s⁻¹	< 1e-05 s⁻¹
A15C G44U C61G C67G	< 1e-05 s⁻¹	–	< 1e-05 s⁻¹	< 1e-05 s⁻¹	< 1e-05 s⁻¹
C11G G44U A48C C50A G59U G62C	< 1e-05 s⁻¹	–	–	–	< 1e-05 s⁻¹
A14G U47A C50A	< 1e-05 s⁻¹	–	–	–	–
A14C G29U C50G	0.000119 ± 3.7e-05 s⁻¹	–	–	–	–
C11U C50G	0.000107 ± 2.2e-05 s⁻¹	0.000271 ± 6.5e-05 s⁻¹	0.000371 ± 9e-05 s⁻¹	0.000104 ± 2.1e-05 s⁻¹	–

Variant	self-cleavage kobs at 40 uM GlcN6P (glucosamine-6-phosphate [1])	self-cleavage kobs at 160 uM GlcN6P (glucosamine-6-phosphate [2])	self-cleavage kobs at 640 uM GlcN6P (glucosamine-6-phosphate [3])	self-cleavage kobs at 2500 uM GlcN6P (glucosamine-6-phosphate [4])	self-cleavage kobs at 10000 uM GlcN6P (glucosamine-6-phosphate [5])
G13U G35A U45A A64G	< 1e-05 s⁻¹	–	< 1e-05 s⁻¹	< 1e-05 s⁻¹	< 1e-05 s⁻¹
C10G G43U U65A	< 1e-05 s⁻¹	–	–	< 1e-05 s⁻¹	–
A12U A53G	0.00255 ± 0.00025 s⁻¹	0.00496 ± 0.00086 s⁻¹	0.0163 ± 0.0025 s⁻¹	–	0.125 ± 0.023 s⁻¹
A12C U54C	0.00107 ± 0.00014 s⁻¹	0.00117 ± 0.00027 s⁻¹	0.0063 ± 0.0021 s⁻¹	0.0137 ± 0.0032 s⁻¹	0.0203 ± 0.0043 s⁻¹
A15C C61A	< 1e-05 s⁻¹	–	–	–	< 1e-05 s⁻¹
C11U U45G U55A C67G C68A	6.74e-05 ± 3.3e-05 s⁻¹	–	–	–	5.91e-05 ± 1.9e-05 s⁻¹
C10U U46A U49A U65C C68G	< 1e-05 s⁻¹	–	–	–	< 1e-05 s⁻¹
A15C U47G G51A U56C	< 1e-05 s⁻¹	–	–	< 1e-05 s⁻¹	< 1e-05 s⁻¹
A12G A33G U57G	< 1e-05 s⁻¹	–	–	–	–
A15G A42G C68U	0.000393 ± 0.00011 s⁻¹	–	–	–	0.0101 ± 0.0045 s⁻¹
A15U A33C A36C G37U G40C C58U	< 1e-05 s⁻¹	–	–	–	< 1e-05 s⁻¹
G13A A36G	< 1e-05 s⁻¹	< 1e-05 s⁻¹	< 1e-05 s⁻¹	< 1e-05 s⁻¹	< 1e-05 s⁻¹
A14G A15U G37A	4.55e-05 ± 1.5e-05 s⁻¹	–	–	–	0.00249 ± 0.00037 s⁻¹
C10U G35U A39U A48G	< 1e-05 s⁻¹	< 1e-05 s⁻¹	< 1e-05 s⁻¹	< 1e-05 s⁻¹	< 1e-05 s⁻¹
G13A G43C U65G	< 1e-05 s⁻¹	–	–	< 1e-05 s⁻¹	–
A12U A36U C50A U69G	9.31e-05 ± 2.3e-05 s⁻¹	–	–	0.000241 ± 5.7e-05 s⁻¹	6.54e-05 ± 1.6e-05 s⁻¹
A12G A15G A53C C67G	< 1e-05 s⁻¹	–	–	–	–
G13C G32C U57G C70G	7.16e-05 ± 2.4e-05 s⁻¹	–	–	–	9.13e-05 ± 1.7e-05 s⁻¹
A15C G29A G60A	< 1e-05 s⁻¹	–	–	–	–
C10U G13U	< 1e-05 s⁻¹	< 1e-05 s⁻¹	< 1e-05 s⁻¹	< 1e-05 s⁻¹	< 1e-05 s⁻¹
G13U C50G C61G	8.16e-05 ± 1.3e-05 s⁻¹	–	–	–	0.000116 ± 1.9e-05 s⁻¹
C10U G43U	< 1e-05 s⁻¹	< 1e-05 s⁻¹	< 1e-05 s⁻¹	< 1e-05 s⁻¹	< 1e-05 s⁻¹
A14G C34U C68G	0.000349 ± 0.00016 s⁻¹	–	–	–	5.07e-05 ± 2e-05 s⁻¹
C11G A14G G63U C70A	9.38e-05 ± 2.9e-05 s⁻¹	–	–	0.000123 ± 5.4e-05 s⁻¹	–
